Here are results for one substance from patent publication US9012606B2, “In vivo half life increased fusion protein or peptide maintained by sustained in vivo release, and method for increasng in vivo half-life using same” (Alteogen, Inc., priority 2009, dated 2015).

Data set [1] in a line: Pharmacokinetics of hGH and hGH/alpha-1 antitrypsin fusions (serum ELISA). It counts as in vivo. As to conditions: Sprague-Dawley rats, subcutaneous, 720 μg/kg. On the procedure: An anti-human growth hormone monoclonal antibody (Medix Biochemica, Finland) was diluted to a concentration of 1-5 μg/mL in phosphate buffered saline (PBS) and the dilution was aliquoted in an amount of 100 μL/well onto a 96-well plate (Nunc, Denmark) and incubated at room temperature for 15-18 hrs. After the antibody remaining suspended was removed, PBS containing 1% bovine serum albumin was plated in an amount of 250 μL/well and incubated at room temperature for 2 hours. The plates were washed three times with wash buffer (0.05% Tween 20, PBS) and the solution was aspirated. Samples were diluted in PBS containing 1% bovine serum albumin and added to the 96-well plates before incubation at room temperature for 2 hrs. The 96-well plates were washed five times with wash buffer and 100 μL of the human growth hormone monoclonal antibody-biotin conjugate prepared using sulfo-NHS-biotin (Pierce biotechnology, U.S.A.) was added to each well of the 96-well plates and then incubated at room temperature for 2 hrs. The plates were washed five times with wash buffer and incubated with streptabidin-HRP at room temperature for 30 min. Again, the plates were washed five times with wash buffer and reacted with 100 μL of a mixture of TMB (3,3′,5,5′-tetramethylbenzidine) and hydrogen peroxide per well for 30 min in a dark place. To each well was added 100 μL of 1 M sulfuric acid to terminate the reaction, followed by measuring absorbance at 450 nm on a VersaMax microplate reader (Molecular Device, U.S.A.). Values for each sample were calculated by regression analysis after a standard curve was plotted for a reference material.
Sprague-Dawley rats were used as experimental animals and three of them were administered with human growth hormone while five rats were assigned to each of the fusion-administered groups. The human growth hormone/alpha-1 antitrypsin fusion [T109wt: α1AT/hGH], the human growth hormone/alpha-1 antitrypsin monovariant fusion [T109: α1AT(P357N)/hGH], and the human growth hormone/alpha-1 antitrypsin divariant fusion [T109T: α1AT(P357N, S359T)/hGH], all prepared in Examples 1-3, were subcutaneously injected at a dose of 720 μg/kg into respective groups of Sprague-Dawley rats. The samples were diluted in PBS before injection. Blood samples were taken at 0, 1, 2, 4, 8, 12, 16, 24, 30 and 48 hrs after the injection, and centrifuged to obtain sera. For a control, Scitropin (SciGen, Singapore), a kind of human growth hormone, was subcutaneously injected at a dose of 200 μg/kg. PBS was used as a diluent. Blood samples were taken at 0, 0.33, 1, 2, 5, 8, 12, 18, 24, 30 and 48 hrs after the injection, and centrifuged to obtain sera. Each sample was analyzed in the same manner as the enzyme immunoassay of Test Example 1.
(In general: An ELISA detects its analyte on a solid surface through an enzyme-linked reagent.)

Data set [2] relates to rat lymphoma cell line (NB2 cell). The experiment in a line: In vitro activity in NB2 cells (MTS method). It counts as cell-based. As to conditions: 48 hrs. On the procedure: The rat lymphoma cell line (NB2 cell) was maintained in RPMI1640 supplemented with 10% HS (Horse serum), 10% FBS, 2-mercaptoethanol and antibiotics at 37° C. under a 5% CO2 condition. For 24 hrs before experiment, NB2 cells were incubated in RPMI 1640 supplemented with 10% HS. Thereafter, the NB2 cells were washed once with 1×DPBS (Dulbecco's Phosphate Buffered Saline), and plated at a density of 2×10^4 cells/100 μL/well in 5% HS-supplemented RPMI 1640 in 96-well plates (Corning, U.S.A.) with final volume of 100 μL. A series of concentrations of the samples were added in an amount of 20 μL to each well of the 96-well plates, followed by incubation at 37° C. for 48 hrs under a 5% CO2 condition. Subsequently, 20 μL of an MTS solution (Promega, U.S.A.) was added to each well of the 96-well plates and allowed to react at 37° C. for 3 hrs under a 5% CO2 condition. The reaction was terminated by adding 20 μL of 10% SDS (sodium dodecyl sulfate) to each well. Absorbance was measured at 490 nm using a VersaMax microplate reader (Molecular Device, U.S.A.).
For orientation: Tetrazolium dyes change colour on reduction, which living cells bring about.

Data set [3] deals with T1, trypsin (Bos taurus, UniProt P00760).
T1 construct: gene PRSS1
T1 sequence (P00760 24-246): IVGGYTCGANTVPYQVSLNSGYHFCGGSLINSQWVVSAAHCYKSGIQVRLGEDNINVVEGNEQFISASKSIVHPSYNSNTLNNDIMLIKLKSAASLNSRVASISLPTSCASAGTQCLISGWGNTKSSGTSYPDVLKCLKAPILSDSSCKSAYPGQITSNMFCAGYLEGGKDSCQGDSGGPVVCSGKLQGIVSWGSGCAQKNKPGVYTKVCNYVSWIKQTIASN
Description: Inhibitory activity against trypsin. It is filed as biochemical. The following applies: trypsin and fusion 10 nM each, 1 hr room temperature. On the procedure:
(§1) The human growth hormone/alpha-1 antitrypsin fusion [T109wt: α1AT/hGH] prepared in Example 1 and the human growth hormone/alpha-1 antitrypsin monovariant fusion [T109: α1AT(P357N)/hGH] prepared in Example 1 were separately mixed with trypsin. Trypsin and the fusions were used at a concentration of 10 nM, respectively. After being incubated at room temperature for 1 hr, the mixture was reacted with 0.2 mM of the substrate N-Benzoyl-Val-Gly-Arg p-nitroanilide hydrochloride (Sigma, U.S.A.), followed by measuring absorbance at 405 nm. Trypsin unit was set to be the concentration of substrate causing a change in absorbance of 0.001 and the enzyme activity was expressed as units/mg trypsin. For comparison, trypsin was used as a control.

In data set [4] the target is T2, human neutrophil elastase (Homo sapiens, UniProt P08246).
T2 sequence (P08246 30-267): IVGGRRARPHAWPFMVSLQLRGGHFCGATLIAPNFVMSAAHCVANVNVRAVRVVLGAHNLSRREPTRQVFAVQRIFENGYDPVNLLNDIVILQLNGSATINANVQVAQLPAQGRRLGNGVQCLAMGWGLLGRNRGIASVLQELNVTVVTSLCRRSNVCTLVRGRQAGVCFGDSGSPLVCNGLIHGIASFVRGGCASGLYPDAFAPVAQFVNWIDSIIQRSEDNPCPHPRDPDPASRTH
Description: Inhibitory activity against human neutrophil elastase. It counts as biochemical. The following applies: elastase and fusion 40 nM each, 1 hr room temperature. On the procedure: as §1, with “with human neutrophil elastase. The elastase” for “with trypsin. Trypsin”, “of 40” for “of 10”, “with 1” for “with 0.2”, “substrate MeOSuc-AAPV-pNA (Santa Cruz Biotechnology, Inc.,” for “substrate N-Benzoyl-Val-Gly-Arg p-nitroanilide hydrochloride (Sigma,”, “nm. Human neutrophil elastase” for “nm. Trypsin”, “units/mg elastase.” for “units/mg trypsin. For comparison, trypsin was used as a control.”

By EC50 is commonly meant the concentration needed to bring the measured effect to its halfway point. High values mean lower potency in that assay, low ones higher potency in that assay. For “human growth hormone/alpha-1 antitrypsin fusion [T109wt]”, in data set [1], the “serum half-life (t1/2)” value stood at 5.3 h and the “time to peak serum concentration (Tmax)” value amounted to 8 h. The substance also came in with an EC50 in data set [2] of 0.212 nM. Further, the “Ka (association equilibrium constant) with trypsin” value in data set [3] was “about 7.5×10^8 M^−1”. Besides, the “inhibition of human neutrophil elastase” value in data set [4] is given as roughly 100%.
